# In patent US20030027314:
# Experiments:
# [1] = CD thermal melt, homodimer, 150 mM KCl
# [2] = CD thermal melt, homodimer, low salt (50 mM KCl)
# [3] = CD thermal melt, homodimer
# [4] = thermal melting curve, homodimer (FIG. 3)
# [5] = thermal melting curve, homodimer (FIG. 4)
# [6] = thermal melting curve, homodimer (FIG. 4); remark: listed apart in the source
# [7] = thermal melting curve, homodimer (FIG. 3); remark: listed apart in the source
Protein,Tm [1],also measured
1heptad-F (protein) ASMTGGQQMGRDPGGGLEQENAELEQEVLELESRNDRLRKEVEQLERELDTLRGIFRQLPESSLVKAMGNCA,29 °C,
C/EBP bZIP domain (chimeric GCN4-C/EBP protein) (protein) SEYQPSLFALNPMGFSPLDGSKSTNENVSASTSTAKPMVGQLIFDKFIKTEEDPGKAKKSVDKNSNEYRVRRERNNIAVRKSRDKAKQRNVETQQKVLELTSDNDRLRKRVEQLSRELDTLRGIFRQLPESSLVKAMGNCA,49.5 °C,Tm [2]: 45.8 °C; fall of Tm in 50 mM KCl against 150 mM KCl [3]: less stable by 4 °C in 50 mM KCl compared with 150 mM KCl
VBP-C/EBP chimeric protein (VBP basic region on the C/EBP leucine zipper) (protein) ASMTGGQQMGRDPLEEKVFVPDEQKDEKYWTRRKKNNVAAKRSRDARRLKENQTQQKVLELTSDNDRLRKRVEQLSRELDTLRGIFRQLPESSLVKAMGNCA,50 °C,difference of homodimer Tm from C/EBP [3]: as homodimers showed a Tm within 1 °C of C/EBP
"CREB (unmodified) (protein, from a related filing) MASSPALPTQPAEEAARKREVRLMKNREAARECRRKKKEYVKCLENRVAVLENQNKTLIEELKALKDLYCHKSD",,Tm [4]: the melting temperature of unmodified CREB homodimerization is 47 °C
"c-Jun (unmodified) (protein, from a related filing) PLSPIDMESQERIKAERKRMRNRIAASKCRKRKLERIARLEEKVKTLKAQNSELASTANMLREQVAQLKQKVMNHVNSGCQLMLTQQLQTF",,Tm [5]: homodimerization of unmodified c-Jun had a melting temperature of 29.4 °C
3heptad-F (protein) ASMTGGQQMGRDPGGGLARENEELEKEAEELEQENAELEQEVLELESRNDRLRKEVEQLERELDTLRGIFRQLPESSLVKAMGNCA,28.3 °C,
0heptad-F (F zipper with the basic region deleted) (protein) ASMTGGQQMGRDPGGGTQQEVLELESRNDRLRKEVEQLERELDTLRGIFRQLPESSLVKAMGNCA,30 °C,
4heptad-Fos (c-Fos with the basic region replaced by four acidic heptad repeats) (protein) MASMTGGQQMGRDPDLEQRAEELARENEELEKEAEELEQENAELEAETDQLEDEKSALQTEIANLLKEKEKLEFILAAHRPACKIP,,Tm [6]: homodimerization of acidically modified c-Fos ... had a melting temperature of 25 °C
2heptad-F (protein) ASMTGGQQMGRDPGGGLEKEAEELEQENAELEQEVLELESRNDRLRKEVEQLERELDTLRGIFRQLPESSLVKAMGNCA,24.8 °C,
4heptad-F (protein) ASMTGGQQMGRDPGGGLEQRAEELARENEELEKEAEELEQENAELEQEVLELESRNDRLRKEVEQLERELDTLRGIFRQLPESSLVKAMGNCA,15.2 °C,
4heptadCREB (CREB with 4 heptad repeats appended at the amino terminus) (protein) ASMTGGQQMGRDPDLEQRAEELARENEELEKEAEELEQENAELENRVAVLENQNKTLIEELKALKDLYCHKSD,,Tm [7]: (4heptadCREB homodimerization) is 22 °C
GBF-C/EBP chimeric protein (GBF basic region on the C/EBP leucine zipper) (protein) PVKDERELKRQKRKQSNRESARRSRLRNEAECEQTQQKVLELTSDNDRLRKRVEQLSRELDTLRGIFRQLPESSLVKAMGNCA,50.2 °C,difference of homodimer Tm from C/EBP [3]: as homodimers showed a Tm within 1 °C of C/EBP
